According to the supplement of paper PMC12764529:
± gives the half width of the 95% confidence interval.

Experiments:
[1] = folding stability dG unfold (combined trypsin and chymotrypsin); higher = more stable
How it was run: (§1)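 Digests were run with trypsin and chymotrypsin at 11 concentrations in threefold dilutions, plus a no-protease condition, on designed mini-proteins in a PA-tagged cDNA display construct. The mini-proteins were under 80 residues, had no cysteine, and were kept only when AlphaFold2 dimer inter-PAE was above 15. After sequencing, Bayesian fitting of the counts gave K50, from which unfolding free energy was derived against a sequence-predicted unfolded-state K50 and a shared folded-state K50, per protease or combined.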

[2] = folding stability dG unfold from trypsin proteolysis; higher = more stable
How it was run: as §1

[3] = folding stability dG unfold from chymotrypsin proteolysis; higher = more stable
How it was run: as §1

Sequence	folding stability dG unfold [1] [kcal/mol]	folding stability dG unfold [2] [kcal/mol]	folding stability dG unfold [3] [kcal/mol]
SNPDDQKKAKPIEIEIEIDFKPERERDPDGKERPRFEFDIEIKIPPGAPLDMITIYIRFDDWPFMITIPASA [r9_488_TrROS]	2.95 ± 0.28	1.8 ± 0.075	3.42 ± 0.15
SAGGPGEEYKHPNGMAMRRDPENGKVEMRKVPPIPIEIKIEIDPALGWIRLSITIPNGKKIEFTFPFSAGGS [r16_453_TrROS]	3.32 ± 0.2	2.36 ± 0.052	4.11 ± 0.32
SAGGSAGGSKAEIVSVEKLPEEGELYLVKIRVDGKTYTIAVPVGSTVTIDVPPGAEIEIRKLPSAGGSAGGS [r12_373_TrROS_Hall]	2.32 ± 0.046	1.62 ± 0.038	2.619 ± 0.019
SAGGMKYLIKIEVDGKEIEIEAESLEEAEELAKKLEEEGIEIEVKKIEIYELPEEEEEEEEEKKKKESAGGS [r8_336_TrROS_Hall]	1.85 ± 0.21	0.249 ± 0.11	2.24 ± 0.08
SAGGSAGGSAGEVVVEEKEDPSGVLTRTETYPDSVVVTEYKIAPDGKTTEPKPTILPKSESAGGSAGGSAGG [r17_72_JUSTAS]	-0.337 ± 0.15	-0.494 ± 0.1	-0.583 ± 0.22
SAGGSAGGSAGEPKIIPIKLPENAKVEEFENPDGYPIKIFENPDNGEIWIVWPDGKIWPISAGGSAGGSAGG [r11_601_TrROS]	0.93 ± 0.067	1.19 ± 0.051	0.719 ± 0.056
SAGGSKEYEVKIVKIKEVKVENGKVYIKLEVEVRDKKTGKLLPSAEELAKELKKKFPNLKIEVKKPSAGGSA [r2_27_TrROS_Hall]	2.42 ± 0.24	2.24 ± 0.13	2.4 ± 0.12
SAGGSAEEEVYRVRVTVTYRNPETGEVVEEVELVIEVEKGKTVEEVARELAKKLNVDRVEVELVPPSAGGSA [r15_540_TrROS_Hall]	4.27 ± 0.1	3.65 ± 0.11	4.52 ± 0.091
SAGGSGMEAKLLEEALEAELKAKGYKVEVKVTVTKSFSVQEGGLPSSTTTVTIEITVRDPKTGKKVSAGGSA [r2_434_JUSTAS]	2.56 ± 0.16	1.62 ± 0.09	3.09 ± 0.1
SAGGMLPDTLKLAREIAKELGINRIEPLESGEVVLYLPEDKVIVIDTINGIPRVRIYNKDEWIEIPISAGGS [r16_296_TrMRF]	4.26 ± 0.15	3.65 ± 0.096	4.56 ± 0.08
SAGGKTVIIEGMSLEELLELIKNAKPGDTITITLKVKVEEYKYENGKLVEKKEFEKTLTLTLKIEEKESAGG [r13_632_TrROS_Hall]	4.1 ± 0.33	2.57 ± 0.28	4.29 ± 0.19
SAGGSPRLELTVTIPGLGLPVTVRTESVDPVRGYVTATLDFPVPGYRATLVFDPVTGRVYARVEPASAGGSA [r2_147_TrMRF]	2.85 ± 0.12	2.34 ± 0.04	3.13 ± 0.062
SAGGSAMKPGQKLLVKNKKTNKIYEITFDKDTGKVYIHNKKTGKTYEFDSLEDALKKMGFEPVKVESAGGSA [r15_500_TrROS_Hall]	2.28 ± 0.16	1.43 ± 0.078	2.45 ± 0.08
SAGGSAGGSAMTITITGLSPEQIEEAAKALGATVTFDKETKTVTITVSPEQLEKLKELLEKSAGGSAGGSAG [r3_354_TrROS_Hall]	3.58 ± 0.18	3.51 ± 0.14	3.58 ± 0.12
SAGGSAGGSAGGKTIVIEVKEEDIEEIIEAAKKAGADEVIIYNKKTNKKYKIKDGKIEPVSAGGSAGGSAGG [r7_564_TrROS_Hall]	1.81 ± 0.1	1.34 ± 0.032	2.02 ± 0.045
SAGGDYWVFKIEITHRNPNGEPEKWDIFIWFDPDDPDMPAKELADWIAKYLAPNNGYEVKIEEIYPVSAGGS [r8_101_TrROS]	4.7 ± 0.31	3.25 ± 0.15	5 ± 0.1
PPLKIKMERYPNGMMKIDKIEVPNDGSIKLTLKFPNNGRKIERTIPPNAPPGQEKEIWFPFPNGFYRLKIES [r1_43_TrROS]	0.32 ± 0.23	0.0375 ± 0.24	0.291 ± 0.26
